Test system: Escherichia coli TOP10
Assay: shrunken log2 fold change of peptide-encoding DNA abundance (4.5 h post-induction vs induction); higher = less antimicrobial activity (less host growth inhibition)
Conditions: time post-induction: 4.5 h; library: site-saturation at positions 5, 18, 19, 20
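Note: peptides expressed intracellularly from a pBAD plasmid library in pooled LB shake-flask culture, induced with 0.3% L-arabinose, DNA abundance read by NGS, three biological replicates, DESeq2 with apeglm shrinkage.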

Row | Sequence | shrunken log2 fold change
1 | RRIRNRPPRLPRPRPRPTTMPRP | -0.0975
2 | RRIRFRPPRLPRPRPRPLYRPRP | -0.702
3 | RRIRERPPRLPRPRPRPNRVPRP | -0.00226
4 | RRIRGRPPRLPRPRPRPVEIPRP | 0.177
5 | RRIRPRPPRLPRPRPRPWPDPRP | -0.149
6 | RRIRWRPPRLPRPRPRPHIEPRP | 0.0376
7 | RRIRQRPPRLPRPRPRPKEGPRP | -0.0167
8 | RRIRRRPPRLPRPRPRPRLMPRP | 0.316
9 | RRIRFRPPRLPRPRPRPRDTPRP | 0.0411
10 | RRIRNRPPRLPRPRPRPPSNPRP | -0.135
11 | RRIRARPPRLPRPRPRPLLWPRP | 1.94
12 | RRIRGRPPRLPRPRPRPEMSPRP | 0.25
13 | RRIRMRPPRLPRPRPRPHLNPRP | 0.176
14 | RRIRHRPPRLPRPRPRPTWQPRP | 0.572
15 | RRIRERPPRLPRPRPRPRVGPRP | 0.33
16 | RRIRHRPPRLPRPRPRPQWCPRP | -0.218
17 | RRIRPRPPRLPRPRPRPEVNPRP | 0.188
18 | RRIRARPPRLPRPRPRPTAMPRP | 0.822
19 | RRIRIRPPRLPRPRPRPIPSPRP | -0.193
20 | RRIRPRPPRLPRPRPRPPHMPRP | 0.214
21 | RRIRPRPPRLPRPRPRPTVYPRP | -0.296
22 | RRIRGRPPRLPRPRPRPWVAPRP | -0.026
23 | RRIRPRPPRLPRPRPRPTDGPRP | -0.0563
24 | RRIRKRPPRLPRPRPRPQAWPRP | 0.314
25 | RRIRLRPPRLPRPRPRPSWFPRP | -0.237

Row | Sequence | shrunken log2 fold change
26 | RRIRRRPPRLPRPRPRPLEGPRP | 0.0703
27 | RRIRFRPPRLPRPRPRPYNQPRP | -0.881
28 | RRIRYRPPRLPRPRPRPNCRPRP | -0.134
29 | RRIRNRPPRLPRPRPRPISDPRP | -0.0335
30 | RRIRKRPPRLPRPRPRPGIGPRP | 0.39
31 | RRIRCRPPRLPRPRPRPEEYPRP | -0.065
32 | RRIRKRPPRLPRPRPRPGCMPRP | 0.993
33 | RRIRHRPPRLPRPRPRPFKYPRP | -0.115
34 | RRIRHRPPRLPRPRPRPFGLPRP | -0.0904
35 | RRIRTRPPRLPRPRPRPSAMPRP | -0.0978
36 | RRIRFRPPRLPRPRPRPWHNPRP | 0.0654
37 | RRIRFRPPRLPRPRPRPNQSPRP | -0.32
38 | RRIRWRPPRLPRPRPRPRENPRP | 0.707
39 | RRIRARPPRLPRPRPRPINSPRP | -0.213
40 | RRIRCRPPRLPRPRPRPNYVPRP | -0.304
41 | RRIRPRPPRLPRPRPRPTWLPRP | 0.522
42 | RRIRFRPPRLPRPRPRPYGVPRP | -0.00783
43 | RRIRFRPPRLPRPRPRPDKAPRP | -0.0262
44 | RRIRCRPPRLPRPRPRPERVPRP | 0.361
45 | RRIRGRPPRLPRPRPRPARNPRP | 0.51
46 | RRIRHRPPRLPRPRPRPWMRPRP | 0.101
47 | RRIRFRPPRLPRPRPRPLWYPRP | -0.721
48 | RRIRVRPPRLPRPRPRPQKIPRP | 0.0538
49 | RRIRPRPPRLPRPRPRPVPPPRP | 0.26
50 | RRIRMRPPRLPRPRPRPFAWPRP | 0.139

Row | Sequence | shrunken log2 fold change
51 | RRIRVRPPRLPRPRPRPLSTPRP | -0.0699
52 | RRIRYRPPRLPRPRPRPVATPRP | -0.281
53 | RRIRARPPRLPRPRPRPQDPPRP | 0.557
54 | RRIRCRPPRLPRPRPRPYPQPRP | -0.595
55 | RRIRERPPRLPRPRPRPTGHPRP | -0.0413
56 | RRIRWRPPRLPRPRPRPNTHPRP | -0.231
57 | RRIRERPPRLPRPRPRPPTPPRP | 0.192
58 | RRIRARPPRLPRPRPRPYYSPRP | -0.173
59 | RRIRRRPPRLPRPRPRPATTPRP | 0.092
60 | RRIRTRPPRLPRPRPRPYALPRP | -0.686
61 | RRIRTRPPRLPRPRPRPIERPRP | 0.107
62 | RRIRFRPPRLPRPRPRPYLWPRP | -0.309
63 | RRIRARPPRLPRPRPRPGTMPRP | 0.351
64 | RRIRVRPPRLPRPRPRPKFNPRP | -0.42
65 | RRIRLRPPRLPRPRPRPFIRPRP | -0.245
66 | RRIRERPPRLPRPRPRPWADPRP | -0.00088
67 | RRIRARPPRLPRPRPRPTKSPRP | 0.032
68 | RRIRLRPPRLPRPRPRPHSSPRP | 0.0594
69 | RRIRTRPPRLPRPRPRPFSTPRP | -0.0812
70 | RRIRSRPPRLPRPRPRPSMWPRP | 0.149
71 | RRIRTRPPRLPRPRPRPPKMPRP | 0.18
72 | RRIRMRPPRLPRPRPRPWFWPRP | 0.221
73 | RRIRWRPPRLPRPRPRPQMVPRP | 0.0853
74 | RRIRERPPRLPRPRPRPLDLPRP | -0.357
75 | RRIRNRPPRLPRPRPRPFSIPRP | 0.000741

Row | Sequence | shrunken log2 fold change
76 | RRIRHRPPRLPRPRPRPAFSPRP | -0.0483
77 | RRIRVRPPRLPRPRPRPCNTPRP | -0.586
78 | RRIRWRPPRLPRPRPRPTCTPRP | 0.441
79 | RRIRWRPPRLPRPRPRPIGEPRP | 0.0833
80 | RRIRHRPPRLPRPRPRPDVAPRP | -0.00146
81 | RRIRVRPPRLPRPRPRPKMDPRP | -0.093
82 | RRIRKRPPRLPRPRPRPQDWPRP | 0.413
83 | RRIRIRPPRLPRPRPRPNSAPRP | -0.234
84 | RRIRYRPPRLPRPRPRPFYKPRP | -0.00388
85 | RRIRQRPPRLPRPRPRPPTEPRP | -0.153
86 | RRIRSRPPRLPRPRPRPQGRPRP | -0.0801
87 | RRIRSRPPRLPRPRPRPGMMPRP | 0.227
88 | RRIRWRPPRLPRPRPRPWRVPRP | -0.245
89 | RRIRVRPPRLPRPRPRPGQRPRP | 0.0272
90 | RRIRRRPPRLPRPRPRPNYPPRP | 0.0594
91 | RRIRYRPPRLPRPRPRPKHFPRP | -0.327
92 | RRIRQRPPRLPRPRPRPGKKPRP | 0.0943
93 | RRIRMRPPRLPRPRPRPQMNPRP | -0.253
94 | RRIRIRPPRLPRPRPRPQIVPRP | -0.167
95 | RRIRYRPPRLPRPRPRPHYPPRP | -1.84
96 | RRIRMRPPRLPRPRPRPKRIPRP | 0.609
97 | RRIRRRPPRLPRPRPRPKKYPRP | -0.103
98 | RRIRYRPPRLPRPRPRPACKPRP | -0.0277
99 | RRIRVRPPRLPRPRPRPRANPRP | 0.384
100 | RRIRHRPPRLPRPRPRPPVMPRP | -0.0747

Row | Sequence | shrunken log2 fold change
101 | RRIRLRPPRLPRPRPRPFRHPRP | -0.322
102 | RRIRNRPPRLPRPRPRPYYQPRP | -0.697
103 | RRIRKRPPRLPRPRPRPQDRPRP | 0.201
104 | RRIRERPPRLPRPRPRPAFVPRP | 0.121
105 | RRIRVRPPRLPRPRPRPFCCPRP | -0.0229
106 | RRIRARPPRLPRPRPRPAGTPRP | 0.308
107 | RRIRVRPPRLPRPRPRPTDEPRP | -0.148
108 | RRIRTRPPRLPRPRPRPGRSPRP | 0.194
109 | RRIRFRPPRLPRPRPRPKYMPRP | -0.836
110 | RRIRTRPPRLPRPRPRPLAVPRP | -0.0185
111 | RRIRMRPPRLPRPRPRPRNYPRP | -0.0232
112 | RRIRTRPPRLPRPRPRPNAHPRP | -0.102
113 | RRIRTRPPRLPRPRPRPSELPRP | -0.255
114 | RRIRLRPPRLPRPRPRPFSQPRP | -0.0811
115 | RRIRHRPPRLPRPRPRPYDFPRP | -0.0434
116 | RRIRFRPPRLPRPRPRPREQPRP | 0.204
117 | RRIRYRPPRLPRPRPRPTNHPRP | -0.709
118 | RRIRMRPPRLPRPRPRPHYFPRP | -0.0364
119 | RRIRLRPPRLPRPRPRPWIMPRP | -0.224
120 | RRIRNRPPRLPRPRPRPYILPRP | -1.07
121 | RRIRQRPPRLPRPRPRPVGGPRP | 2.52
122 | RRIRGRPPRLPRPRPRPSIQPRP | 0.176
123 | RRIRSRPPRLPRPRPRPTPPPRP | 0.43
124 | RRIRRRPPRLPRPRPRPWVLPRP | 0.0819
125 | RRIRMRPPRLPRPRPRPTYIPRP | -1.08

Row | Sequence | shrunken log2 fold change
126 | RRIRMRPPRLPRPRPRPFTHPRP | -0.107
127 | RRIRVRPPRLPRPRPRPYLMPRP | -0.587
128 | RRIRNRPPRLPRPRPRPCSTPRP | -0.194
129 | RRIRLRPPRLPRPRPRPHMPPRP | -0.222
130 | RRIRFRPPRLPRPRPRPWALPRP | 0.00634
131 | RRIRERPPRLPRPRPRPASWPRP | 0.0747
132 | RRIRWRPPRLPRPRPRPYPYPRP | 0.0754
133 | RRIRLRPPRLPRPRPRPKSDPRP | 0.00855
134 | RRIRVRPPRLPRPRPRPKEAPRP | -0.0421
135 | RRIRSRPPRLPRPRPRPWISPRP | 0.181
136 | RRIRTRPPRLPRPRPRPFFVPRP | -0.142
137 | RRIRYRPPRLPRPRPRPFKMPRP | -0.673
138 | RRIRQRPPRLPRPRPRPQTVPRP | -0.0925
139 | RRIRMRPPRLPRPRPRPGLQPRP | 4.5
140 | RRIRQRPPRLPRPRPRPGVYPRP | 0.0572
141 | RRIRIRPPRLPRPRPRPIFQPRP | -0.378
142 | RRIRKRPPRLPRPRPRPAQKPRP | -0.0358
143 | RRIRLRPPRLPRPRPRPVMDPRP | -0.0398
144 | RRIRERPPRLPRPRPRPDCNPRP | -0.395
145 | RRIRPRPPRLPRPRPRPKPQPRP | 0.397
146 | RRIRVRPPRLPRPRPRPCAEPRP | -0.0931
147 | RRIRFRPPRLPRPRPRPEAPPRP | 0.529
148 | RRIRVRPPRLPRPRPRPVAIPRP | -0.396
149 | RRIRQRPPRLPRPRPRPWGVPRP | 0.122
150 | RRIRHRPPRLPRPRPRPKTDPRP | -0.434
